Legend:
[1] = molecular target: T1, αIIbβ3 integrin of rabbit platelets in aorta (Oryctolagus cuniculus, New Zealand, UniProt Q9TUN4;Q9TUN3); experiment: immunostaining of cells or tissue; paraffin sections of atherosclerotic arteries of mouse, rabbit and human; scFv 20-40 μg/ml overnight at 4°C; detected with HRP anti-6His and DAB; conditions: one partner purified
T1 construct: integrin αIIb (CD41), rabbit, endogenous in aorta tissue; integrin β3, rabbit, endogenous in aorta tissue; In the ELISA the integrin stood within solubilised aorta proteins (T-PER or HSB lysis buffer), not on cells; also called atheromatous proteins; healthy aorta proteins; source: endogenous, New Zealand rabbit aorta (paraffin sections; soluble protein extracts of atheromatous and healthy aorta)

[2] = molecular target: T2, αIIbβ3 integrin on murine platelets in atherosclerotic aorta sections (Mus musculus, ApoE-/-, UniProt Q9QUM0;O54890); experiment: as above; conditions: one partner purified
T2 construct: integrin αIIb (CD41), mouse, on platelets in tissue; integrin β3, mouse, on platelets in tissue; source: endogenous, paraffin sections of aorta of ApoE-/- mice
T2 sequence (Q9QUM0 32-1033, chain 1 of 2): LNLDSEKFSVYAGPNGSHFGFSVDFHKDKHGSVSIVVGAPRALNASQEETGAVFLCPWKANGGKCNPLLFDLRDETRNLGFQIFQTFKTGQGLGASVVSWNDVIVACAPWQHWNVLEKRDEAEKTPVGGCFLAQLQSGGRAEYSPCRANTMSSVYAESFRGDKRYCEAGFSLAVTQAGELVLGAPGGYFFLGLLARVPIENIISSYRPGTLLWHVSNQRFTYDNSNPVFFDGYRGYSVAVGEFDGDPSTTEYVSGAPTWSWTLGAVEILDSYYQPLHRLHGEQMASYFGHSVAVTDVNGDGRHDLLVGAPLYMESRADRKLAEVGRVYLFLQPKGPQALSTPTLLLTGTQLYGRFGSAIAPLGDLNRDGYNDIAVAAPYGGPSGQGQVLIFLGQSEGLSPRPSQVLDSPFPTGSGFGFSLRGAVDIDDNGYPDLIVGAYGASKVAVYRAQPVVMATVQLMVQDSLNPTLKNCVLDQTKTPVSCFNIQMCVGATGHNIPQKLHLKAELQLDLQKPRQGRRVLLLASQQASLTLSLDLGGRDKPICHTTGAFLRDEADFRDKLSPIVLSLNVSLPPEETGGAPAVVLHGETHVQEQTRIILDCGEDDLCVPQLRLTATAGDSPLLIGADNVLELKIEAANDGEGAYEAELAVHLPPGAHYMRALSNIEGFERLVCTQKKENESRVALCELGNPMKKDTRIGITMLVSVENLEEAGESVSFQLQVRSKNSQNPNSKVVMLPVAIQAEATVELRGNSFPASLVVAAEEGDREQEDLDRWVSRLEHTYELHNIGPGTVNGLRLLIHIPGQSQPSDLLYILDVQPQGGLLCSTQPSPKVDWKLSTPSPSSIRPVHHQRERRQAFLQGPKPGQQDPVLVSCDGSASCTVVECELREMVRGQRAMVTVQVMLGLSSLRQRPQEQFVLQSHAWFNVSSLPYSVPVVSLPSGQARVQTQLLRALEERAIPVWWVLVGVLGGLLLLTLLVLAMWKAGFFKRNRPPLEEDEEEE
T2 sequence (O54890 26-787, chain 2 of 2): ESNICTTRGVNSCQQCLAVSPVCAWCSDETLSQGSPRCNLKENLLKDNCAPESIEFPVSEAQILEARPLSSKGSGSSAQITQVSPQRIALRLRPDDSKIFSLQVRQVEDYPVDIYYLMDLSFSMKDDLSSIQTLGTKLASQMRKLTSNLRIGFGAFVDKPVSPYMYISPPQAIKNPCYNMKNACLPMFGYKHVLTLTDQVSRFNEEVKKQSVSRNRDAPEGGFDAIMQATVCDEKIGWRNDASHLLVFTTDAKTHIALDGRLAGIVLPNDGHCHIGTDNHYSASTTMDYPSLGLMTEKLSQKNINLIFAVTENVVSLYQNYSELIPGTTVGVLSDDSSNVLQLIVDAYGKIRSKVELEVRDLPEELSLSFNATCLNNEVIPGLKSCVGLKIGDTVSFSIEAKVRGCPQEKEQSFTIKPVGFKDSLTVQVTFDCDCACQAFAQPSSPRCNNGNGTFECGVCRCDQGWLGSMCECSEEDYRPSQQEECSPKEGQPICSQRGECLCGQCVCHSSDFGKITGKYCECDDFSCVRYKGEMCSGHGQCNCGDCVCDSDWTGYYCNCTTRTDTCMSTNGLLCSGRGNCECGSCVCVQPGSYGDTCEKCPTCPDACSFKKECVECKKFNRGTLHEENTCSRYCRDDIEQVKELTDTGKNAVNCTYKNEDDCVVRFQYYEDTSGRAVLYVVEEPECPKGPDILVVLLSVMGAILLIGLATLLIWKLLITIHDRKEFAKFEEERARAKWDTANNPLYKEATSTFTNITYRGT

purified αIIbβ3 integrin = molecular target: T3, purified αIIbβ3 integrin (Homo sapiens (assumed), UniProt P08514;P05106); experiment: SPR; Biacore 3000; αIIbβ3 amine-coupled on CM5 (about 8000 RU); scFv injected at 94, 188 and 390 nM; HBS-EP with 2 mM Ca2+; 20 μL/min; conditions: both partners purified
T3 construct: integrin αIIb (CD41) subunit of purified αIIbβ3; integrin β3 subunit of purified αIIbβ3; probably from human platelets (surmise); also called integrin αIIbβ3; source: bought: Kordia Life Sciences
T3 sequence (P08514 32-1039, chain 1 of 2): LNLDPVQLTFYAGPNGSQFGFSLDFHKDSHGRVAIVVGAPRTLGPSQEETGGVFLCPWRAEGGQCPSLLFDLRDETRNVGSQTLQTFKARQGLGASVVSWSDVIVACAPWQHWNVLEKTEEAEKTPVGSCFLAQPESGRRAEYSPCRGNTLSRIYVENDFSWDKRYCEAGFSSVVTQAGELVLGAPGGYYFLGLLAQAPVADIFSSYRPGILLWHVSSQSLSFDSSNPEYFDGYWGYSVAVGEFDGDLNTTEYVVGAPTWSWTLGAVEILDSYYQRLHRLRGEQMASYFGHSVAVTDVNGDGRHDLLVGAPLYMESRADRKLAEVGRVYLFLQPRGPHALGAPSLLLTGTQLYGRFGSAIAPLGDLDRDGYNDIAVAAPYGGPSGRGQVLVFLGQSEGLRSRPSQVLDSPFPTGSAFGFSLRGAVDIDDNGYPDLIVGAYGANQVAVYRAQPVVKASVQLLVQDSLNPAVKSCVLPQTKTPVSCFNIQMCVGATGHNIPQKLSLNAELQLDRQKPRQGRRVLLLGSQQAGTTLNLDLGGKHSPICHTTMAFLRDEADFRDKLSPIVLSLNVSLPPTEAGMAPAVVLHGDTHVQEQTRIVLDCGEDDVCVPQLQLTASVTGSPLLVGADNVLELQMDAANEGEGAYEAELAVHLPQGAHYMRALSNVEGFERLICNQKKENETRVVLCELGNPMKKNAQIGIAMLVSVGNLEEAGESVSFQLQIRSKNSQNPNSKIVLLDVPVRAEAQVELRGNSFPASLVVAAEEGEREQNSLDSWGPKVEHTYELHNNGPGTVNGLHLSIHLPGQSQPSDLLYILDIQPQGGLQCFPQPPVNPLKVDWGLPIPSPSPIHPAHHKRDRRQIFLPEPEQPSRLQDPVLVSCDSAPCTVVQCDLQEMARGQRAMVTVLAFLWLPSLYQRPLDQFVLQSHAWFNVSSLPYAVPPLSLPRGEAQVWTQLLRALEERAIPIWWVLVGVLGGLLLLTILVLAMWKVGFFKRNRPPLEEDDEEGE
T3 sequence (P05106 27-718, chain 2 of 2): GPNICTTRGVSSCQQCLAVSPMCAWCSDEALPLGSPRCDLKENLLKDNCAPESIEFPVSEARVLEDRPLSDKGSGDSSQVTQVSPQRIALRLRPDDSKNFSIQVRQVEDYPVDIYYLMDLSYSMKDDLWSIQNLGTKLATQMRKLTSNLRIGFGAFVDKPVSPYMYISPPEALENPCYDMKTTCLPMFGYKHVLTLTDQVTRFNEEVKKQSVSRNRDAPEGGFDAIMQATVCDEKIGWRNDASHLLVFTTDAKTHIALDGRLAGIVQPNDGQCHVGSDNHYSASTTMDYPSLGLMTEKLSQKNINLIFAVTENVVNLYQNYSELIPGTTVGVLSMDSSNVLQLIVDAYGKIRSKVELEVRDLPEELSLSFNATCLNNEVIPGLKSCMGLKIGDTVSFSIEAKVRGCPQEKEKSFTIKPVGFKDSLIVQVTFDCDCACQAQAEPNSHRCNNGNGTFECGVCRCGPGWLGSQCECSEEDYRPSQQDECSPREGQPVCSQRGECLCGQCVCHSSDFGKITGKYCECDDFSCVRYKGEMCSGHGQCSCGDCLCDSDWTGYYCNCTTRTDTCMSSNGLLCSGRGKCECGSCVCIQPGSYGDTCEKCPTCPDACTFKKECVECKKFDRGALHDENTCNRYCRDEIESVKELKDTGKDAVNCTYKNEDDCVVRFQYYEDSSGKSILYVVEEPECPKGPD

[3] = molecular target: T4, αIIbβ3 integrin on lyophilized platelets (Homo sapiens (assumed), UniProt P08514;P05106); experiment: BLI; Octet Red96; TEG4-2c scFv loaded on HIS2 (anti-penta-His) sensor at 21 μg/mL; platelets 5x10^5 to 5x10^8/mL (αIIbβ3 42 pM to 42 nM) as analyte; platelet buffer; conditions: one partner purified
T4 construct: integrin αIIb (CD41) on lyophilized platelets; integrin β3 on lyophilized platelets; Platelet concentrations were converted into αIIbβ3 molarities with 50 000 αIIbβ3 per platelet; also called whole platelets; blood platelets; source: bought: lyophilized platelets, Helena Biosciences Europe, resuspended
T4 sequence (P08514 32-1039, chain 1 of 2): as the sequence (P08514 32-1039, chain 1 of 2) above
T4 sequence (P05106 27-788, chain 2 of 2): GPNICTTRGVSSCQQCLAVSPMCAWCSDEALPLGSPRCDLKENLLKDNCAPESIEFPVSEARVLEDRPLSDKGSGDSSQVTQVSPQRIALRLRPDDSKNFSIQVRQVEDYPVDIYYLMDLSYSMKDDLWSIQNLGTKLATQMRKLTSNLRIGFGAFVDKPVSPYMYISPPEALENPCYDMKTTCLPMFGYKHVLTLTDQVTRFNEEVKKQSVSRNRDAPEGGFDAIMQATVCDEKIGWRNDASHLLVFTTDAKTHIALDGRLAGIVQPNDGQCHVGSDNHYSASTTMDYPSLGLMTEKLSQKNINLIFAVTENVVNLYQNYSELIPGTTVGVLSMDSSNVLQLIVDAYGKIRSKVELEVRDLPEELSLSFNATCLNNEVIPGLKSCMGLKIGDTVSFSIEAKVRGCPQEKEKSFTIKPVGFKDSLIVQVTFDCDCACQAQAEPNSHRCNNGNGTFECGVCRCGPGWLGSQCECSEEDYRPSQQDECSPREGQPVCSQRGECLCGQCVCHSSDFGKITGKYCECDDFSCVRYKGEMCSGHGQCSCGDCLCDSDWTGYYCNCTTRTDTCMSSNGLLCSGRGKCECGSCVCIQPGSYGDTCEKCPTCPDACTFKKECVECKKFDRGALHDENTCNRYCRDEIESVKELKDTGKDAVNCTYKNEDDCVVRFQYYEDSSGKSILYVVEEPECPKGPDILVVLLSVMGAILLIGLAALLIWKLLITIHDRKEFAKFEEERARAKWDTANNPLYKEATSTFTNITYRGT

[4] = molecular target: T5, αIIbβ3 integrin on human platelets (Homo sapiens, UniProt P08514;P05106); experiment: flow cytometry on cells; washed human platelets activated with 0.5 U/ml thrombin, PFA-fixed; 25 μg/mL TEG4-2c scFv overnight at 4°C; detected with Alexa Fluor 488 anti-6His; conditions: one partner purified
T5 construct: integrin αIIb (CD41), human, on platelets; integrin β3, human, on platelets; the state is told by the assay; also called A-PL; NA-PL; source: endogenous, human platelets (washed platelets and platelet-rich plasma from healthy donors; platelets in human coronary artery sections)
T5 sequence (P08514 32-1039, chain 1 of 2): as the sequence (P08514 32-1039, chain 1 of 2) above
T5 sequence (P05106 27-788, chain 2 of 2): as the sequence (P05106 27-788, chain 2 of 2) above

Measured: binding result

B1: TEG4-2c scFv (recombinant human anti-αIIbβ3 single-chain variable fragment with 6His-Gly-Cys-Cys C-terminus) (scFv, V domains shown)
VH: QVQLVESGGGVVQPGRSLRLSCAASGFTFSSYAMHWVRQAPGKGLEWVAVISYDGSNKYYADSVKGRFTISRDNSKNTLYLQMNSLRAEDTAVYYCARKSYFDYWGQGTLVTVSS
VL: VSELTQPASVSGSPGQSITISCTGTSSDVGGYNYVSWYQQHPGKAPKLMIYEVSNRPSGVSNRFSGSKSGNTASLTISGLQAEDEADYYCSSYTSSSTLVVFGGGTKLTVL
notes: Gly-Cys-Cys added after the 6His tag at the very C-terminus (printed in three-letter code as 'Gly-Cyc-Cys'), for site-specific grafting; Order at the C-terminus: scFv, c-myc tag, 6His, Gly-Cys-Cys; Purified fractions are said to hold monomers and dimers; also called scFv TEG4-2c; anti-αIIbβ3 TEG4-2c scFv; source: Pichia pastoris X33, secreted into the supernatant, purified (IMAC HisTrap excel, …)
binds: all assays above

— publication PMC5268420 (PLoS ONE, 2017)
